Assay [1] deals with T1, Alr4641 (2-Cys-Prx) (Nostoc sp. PCC 7120 = FACHB-418, UniProt A0ACD7RYC4).
T1 construct: full length, 203 residues, 23 kD, N-terminal His-tag (pET16b), expressed in E. coli BL21pLysS; decamer/dodecamer
T1 sequence (A0ACD7RYC4 1-203): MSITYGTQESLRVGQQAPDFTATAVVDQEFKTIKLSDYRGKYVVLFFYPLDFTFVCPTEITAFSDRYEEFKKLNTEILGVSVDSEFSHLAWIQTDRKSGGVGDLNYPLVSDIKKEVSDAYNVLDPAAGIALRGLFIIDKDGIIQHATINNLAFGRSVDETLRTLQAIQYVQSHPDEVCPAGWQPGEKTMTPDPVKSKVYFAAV
Description: NTRC-dependent peroxidase assay, NADPH oxidation at […] nm. In kind it is biochemical. The settings on record: 100 uM peroxide; NTRC of Anabaena PCC7120 as reductant with NADPH.

Assay [2] addresses Alr4641 (typical 2-Cys-Prx of Anabaena PCC7120), His-tagged, wild type (Anabaena PCC7120). As to the kind of experiment: SDS-PAGE under reducing or non-reducing conditions; 12% SDS-PAGE of purified proteins with or without DTT (10 mM); shows the inter-subunit disulfide dimer.
Assay [3] concerns the target Alr4641 over-expressed in Anabaena PCC7120 (strain An4641+) (Anabaena PCC7120). As to the kind of experiment: non-reducing SDS-PAGE with Western blot; cell free extracts of Anabaena (wild type after MV, H2O2, t-Bx or γ-radiation and recovery; An4641+; AnC56S+) on non-reducing SDS-PAGE, probed with Alr4641 antiserum; shows the disulfide dimer.
Assay [4] deals with Alr4641, endogenous in wild-type Anabaena PCC7120 (Anabaena PCC7120 (endogenous)). The description is as above.
Assay [5] addresses Alr4641 (typical 2-Cys-Prx of Anabaena PCC7120), His-tagged, wild type (Anabaena PCC7120). Description: SPR; Autolab Esprit; about 250 response units of Alr4641 immobilised on bare gold chip by EDC-NHS; NTRC injected at 4.33, 8.66, 10.39 and 12.99 μM, 33.3 μL/min, 300 s; 20°C; 10 mM HEPES, 100 mM NaCl, pH 7.5; equilibrium analysis.

Experimental findings from publication PMC4349727, “Redox-dependent chaperone/peroxidase function of 2-Cys-Prx from the cyanobacterium Anabaena PCC7120: role in oxidative stress tolerance” (BMC Plant Biology, 2015) are described below.

Regarding `CC(C)(OO)c1ccccc1` [Cux, cumeme hydroperoxide], the “NTRC-dependent peroxidase assay, NADPH oxidation at 340 nm” value in assay [1] was “best activity was observed with H2O2 followed by t-butyl hydroperoxide and cumeme hydroperoxide”. Still for that read-out and setting: then `CC(C)(C)OO` [t-Bx, t-butyl hydroperoxide], with “best activity was observed with H2O2 followed by t-butyl hydroperoxide and cumeme hydroperoxide”. Take “Alr4641 (typical 2-Cys-Prx of Anabaena PCC7120), His-tagged, wild type (enzyme)”: the stoichiometry N in assay [2] is 2.

For “Alr4641 over-expressed in Anabaena PCC7120 (strain An4641+) (enzyme)”, in assay [3], the stoichiometry N amounted to 2. In assay [4], “Alr4641, endogenous in wild-type Anabaena PCC7120 (enzyme)” came in with a stoichiometry N of 2. “NADPH-dependent thioredoxin reductase (NTRC) from Anabaena PCC7120, His-tagged (enzyme)” had a Kd in assay [5] of 1.04 µM.
